Assay results from patent publication US20100136007A1 (Five Prime, published 2010).

Target: T1, hCSF1R-ECD.506 (human, UniProt P07333 20-506)
T1 construct: also called hCSF1R.506; human CSF1R.506
Test: SPR, Biacore
Description: The CSF1 and IL34 ligand binding affinity and kinetics of the hCSF1R.506-GS-Fc and hCSF1R.512-GS-Fc fusion proteins were determined using Biacore® X surface plasmon resonance (SPR) technology (Uppsala, Sweden). CSF1 and IL34 are the only two ligands known to interact with the CSF1R ECD. The CSF1 and IL34 binding experiments were carried out using methodology similar to that described in Lin et al., Science 320:807-811, (2008).
In order to compare the relative ligand binding affinity of hCSF1R.506 (SEQ ID NO:2) and hCSF1R.506-Fc (SEQ ID NO:6) proteins expressed in CHO cells to CSF1, a Biacore® assay was used.

T1 sequence (P07333 20-506 limits assumed): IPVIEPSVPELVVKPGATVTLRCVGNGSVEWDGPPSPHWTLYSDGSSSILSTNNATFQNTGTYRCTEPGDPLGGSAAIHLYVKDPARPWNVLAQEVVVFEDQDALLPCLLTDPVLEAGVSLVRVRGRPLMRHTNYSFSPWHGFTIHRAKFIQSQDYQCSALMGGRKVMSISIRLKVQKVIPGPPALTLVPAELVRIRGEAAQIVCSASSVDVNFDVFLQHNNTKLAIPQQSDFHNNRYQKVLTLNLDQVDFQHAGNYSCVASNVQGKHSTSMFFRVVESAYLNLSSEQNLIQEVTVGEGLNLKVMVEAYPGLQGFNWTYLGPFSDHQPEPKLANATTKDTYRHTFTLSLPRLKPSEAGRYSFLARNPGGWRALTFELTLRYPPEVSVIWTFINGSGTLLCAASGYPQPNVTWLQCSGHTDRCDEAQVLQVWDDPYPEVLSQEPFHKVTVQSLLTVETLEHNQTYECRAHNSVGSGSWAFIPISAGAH

Kd: 28.9 nM | koff: 0.000809 s⁻¹ | kon: 28000 M⁻¹ s⁻¹
B1: colony stimulating factor 1 ligand (CSF1) (ligand, UniProt P09603 33-190, looked up)
chain: EEVSEYCSHMIGSGHLQSLQRLIDSQMETSCQITFEFVDQEQLKDPVCYLKKAFLLVQDIMEDTMRFRDNTPNAIAIVQLQELSLRLKSCFTKDYEEHDKACVRTFYETPLQLLEKVKNVFNETKNLLDKDWNIFSKNCNNSFAECSSQDVVTKPDCN
notes: also called MCSF; MGC31930
